Data as given in article PMC11403609, “Kinetics of Secoisolariciresinol Glucosyltransferase LuUGT74S1 and Its Mutants” (Journal of Agricultural and Food Chemistry, 2024).

These proteins were tested on COc1cc(C[C@@H](CO)[C@H](CO)Cc2ccc(O)c(OC)c2)ccc1O (assay: UDP-Glo glycosyltransferase assay (UDP release), Michaelis-Menten fit). Details: apparent, UDP-glucose 1.64 mM constant (general assay text says 100 μM), 50 mM phosphate pH 8, 30 °C, 30 min, total of mono- and diglucosylation.
Format: biochemical, Linum usitatissimum
From the text: UDP-Glo glycosyltransferase assay (UDP release), Michaelis-Menten fit on LuUGT74S1

Protein	Km	Vmax	kcat	kcat/Km
LuUGT74S1 (Linum usitatissimum; H194S) (protein, N-terminal GST fusion (pGEX-4T-1, EcoRI/NotI), tag kept (eluted with glutathione); codon-optimised synthetic gene; E. coli BL21(DE3) pLysS) MAGDEREKAHCLVVPAAAQGHFTPLLQFSKRLIPKRIRVTLALTRFIHSTMTVTAQSGIHIDTISDGFDHSGLILQDPEHYSQTFRRVGSETLTDLIRKQSESRHPVHCIIYDASMPWFLDVAKRFGIVGAAFLTQSCAVNAIYYHLREGTIKRPVVSDPAAGTLVIDGLPPLEVSDLPSFIWDDLHTEFLAASLRQFSNDGADWVFCNTVYQLELEAVDWLTKQWLINFRTIGPTIPSFYLDKQIPDDKDYDISIFNPQNQTCMNWLQSKPDGSVVYVSFGSLARLSPQQTEELYFGLKNSNHYFLWVVRESEVAKLPKEEYLSGEKGLVVSWCSQLQVLASGKVGCFVTHCGWNSTLEALSLGVPMVAMPECGDQLTNAKFIKDVWKTGVRAEADDGKGIMWGMIKREVIERCIREVMEGEETRRNADKWGKIIKEAVVEGGSSDKNTEDFATSLINFAETFQFSC	122 ± 12 µM	0.384 µmol/min/mg	0.34 ± 0.06 s⁻¹	3000 M⁻¹ s⁻¹
LuUGT74S1 (Linum usitatissimum; S115F) (protein, N-terminal GST fusion (pGEX-4T-1, EcoRI/NotI), tag kept (eluted with glutathione); codon-optimised synthetic gene; E. coli BL21(DE3) pLysS) MAGDEREKAHCLVVPAAAQGHFTPLLQFSKRLIPKRIRVTLALTRFIHSTMTVTAQSGIHIDTISDGFDHSGLILQDPEHYSQTFRRVGSETLTDLIRKQSESRHPVHCIIYDAFMPWFLDVAKRFGIVGAAFLTQSCAVNAIYYHLREGTIKRPVVSDPAAGTLVIDGLPPLEVSDLPSFIWDDLHTEFLAAHLRQFSNDGADWVFCNTVYQLELEAVDWLTKQWLINFRTIGPTIPSFYLDKQIPDDKDYDISIFNPQNQTCMNWLQSKPDGSVVYVSFGSLARLSPQQTEELYFGLKNSNHYFLWVVRESEVAKLPKEEYLSGEKGLVVSWCSQLQVLASGKVGCFVTHCGWNSTLEALSLGVPMVAMPECGDQLTNAKFIKDVWKTGVRAEADDGKGIMWGMIKREVIERCIREVMEGEETRRNADKWGKIIKEAVVEGGSSDKNTEDFATSLINFAETFQFSC	75 ± 1 µM	0.834 µmol/min/mg	0.77 ± 0.02 s⁻¹	10000 M⁻¹ s⁻¹
LuUGT74S1 (Linum usitatissimum) (protein, N-terminal GST fusion (pGEX-4T-1, EcoRI/NotI), tag kept (eluted with glutathione); codon-optimised synthetic gene; E. coli BL21(DE3) pLysS) MAGDEREKAHCLVVPAAAQGHFTPLLQFSKRLIPKRIRVTLALTRFIHSTMTVTAQSGIHIDTISDGFDHSGLILQDPEHYSQTFRRVGSETLTDLIRKQSESRHPVHCIIYDASMPWFLDVAKRFGIVGAAFLTQSCAVNAIYYHLREGTIKRPVVSDPAAGTLVIDGLPPLEVSDLPSFIWDDLHTEFLAAHLRQFSNDGADWVFCNTVYQLELEAVDWLTKQWLINFRTIGPTIPSFYLDKQIPDDKDYDISIFNPQNQTCMNWLQSKPDGSVVYVSFGSLARLSPQQTEELYFGLKNSNHYFLWVVRESEVAKLPKEEYLSGEKGLVVSWCSQLQVLASGKVGCFVTHCGWNSTLEALSLGVPMVAMPECGDQLTNAKFIKDVWKTGVRAEADDGKGIMWGMIKREVIERCIREVMEGEETRRNADKWGKIIKEAVVEGGSSDKNTEDFATSLINFAETFQFSC	74 ± 1 µM	0.948 µmol/min/mg	0.8 ± 0.01 s⁻¹	11000 M⁻¹ s⁻¹
LuUGT74S1 (Linum usitatissimum; Q136F) (protein, N-terminal GST fusion (pGEX-4T-1, EcoRI/NotI), tag kept (eluted with glutathione); codon-optimised synthetic gene; E. coli BL21(DE3) pLysS) MAGDEREKAHCLVVPAAAQGHFTPLLQFSKRLIPKRIRVTLALTRFIHSTMTVTAQSGIHIDTISDGFDHSGLILQDPEHYSQTFRRVGSETLTDLIRKQSESRHPVHCIIYDASMPWFLDVAKRFGIVGAAFLTFSCAVNAIYYHLREGTIKRPVVSDPAAGTLVIDGLPPLEVSDLPSFIWDDLHTEFLAAHLRQFSNDGADWVFCNTVYQLELEAVDWLTKQWLINFRTIGPTIPSFYLDKQIPDDKDYDISIFNPQNQTCMNWLQSKPDGSVVYVSFGSLARLSPQQTEELYFGLKNSNHYFLWVVRESEVAKLPKEEYLSGEKGLVVSWCSQLQVLASGKVGCFVTHCGWNSTLEALSLGVPMVAMPECGDQLTNAKFIKDVWKTGVRAEADDGKGIMWGMIKREVIERCIREVMEGEETRRNADKWGKIIKEAVVEGGSSDKNTEDFATSLINFAETFQFSC	165 ± 9 µM	0.324 µmol/min/mg	0.29 ± 0.04 s⁻¹	2000 M⁻¹ s⁻¹
LuUGT74S1 (Linum usitatissimum; S115A) (protein, N-terminal GST fusion (pGEX-4T-1, EcoRI/NotI), tag kept (eluted with glutathione); codon-optimised synthetic gene; E. coli BL21(DE3) pLysS) MAGDEREKAHCLVVPAAAQGHFTPLLQFSKRLIPKRIRVTLALTRFIHSTMTVTAQSGIHIDTISDGFDHSGLILQDPEHYSQTFRRVGSETLTDLIRKQSESRHPVHCIIYDAAMPWFLDVAKRFGIVGAAFLTQSCAVNAIYYHLREGTIKRPVVSDPAAGTLVIDGLPPLEVSDLPSFIWDDLHTEFLAAHLRQFSNDGADWVFCNTVYQLELEAVDWLTKQWLINFRTIGPTIPSFYLDKQIPDDKDYDISIFNPQNQTCMNWLQSKPDGSVVYVSFGSLARLSPQQTEELYFGLKNSNHYFLWVVRESEVAKLPKEEYLSGEKGLVVSWCSQLQVLASGKVGCFVTHCGWNSTLEALSLGVPMVAMPECGDQLTNAKFIKDVWKTGVRAEADDGKGIMWGMIKREVIERCIREVMEGEETRRNADKWGKIIKEAVVEGGSSDKNTEDFATSLINFAETFQFSC	70 ± 2 µM	0.894 µmol/min/mg	0.76 ± 0.08 s⁻¹	11000 M⁻¹ s⁻¹
LuUGT74S1 (Linum usitatissimum; Y144F) (protein, N-terminal GST fusion (pGEX-4T-1, EcoRI/NotI), tag kept (eluted with glutathione); codon-optimised synthetic gene; E. coli BL21(DE3) pLysS) MAGDEREKAHCLVVPAAAQGHFTPLLQFSKRLIPKRIRVTLALTRFIHSTMTVTAQSGIHIDTISDGFDHSGLILQDPEHYSQTFRRVGSETLTDLIRKQSESRHPVHCIIYDASMPWFLDVAKRFGIVGAAFLTQSCAVNAIFYHLREGTIKRPVVSDPAAGTLVIDGLPPLEVSDLPSFIWDDLHTEFLAAHLRQFSNDGADWVFCNTVYQLELEAVDWLTKQWLINFRTIGPTIPSFYLDKQIPDDKDYDISIFNPQNQTCMNWLQSKPDGSVVYVSFGSLARLSPQQTEELYFGLKNSNHYFLWVVRESEVAKLPKEEYLSGEKGLVVSWCSQLQVLASGKVGCFVTHCGWNSTLEALSLGVPMVAMPECGDQLTNAKFIKDVWKTGVRAEADDGKGIMWGMIKREVIERCIREVMEGEETRRNADKWGKIIKEAVVEGGSSDKNTEDFATSLINFAETFQFSC	72 ± 1 µM	0.9 µmol/min/mg	0.75 ± 0.02 s⁻¹	10000 M⁻¹ s⁻¹
LuUGT74S1 (Linum usitatissimum; Q136S) (protein, N-terminal GST fusion (pGEX-4T-1, EcoRI/NotI), tag kept (eluted with glutathione); codon-optimised synthetic gene; E. coli BL21(DE3) pLysS) MAGDEREKAHCLVVPAAAQGHFTPLLQFSKRLIPKRIRVTLALTRFIHSTMTVTAQSGIHIDTISDGFDHSGLILQDPEHYSQTFRRVGSETLTDLIRKQSESRHPVHCIIYDASMPWFLDVAKRFGIVGAAFLTSSCAVNAIYYHLREGTIKRPVVSDPAAGTLVIDGLPPLEVSDLPSFIWDDLHTEFLAAHLRQFSNDGADWVFCNTVYQLELEAVDWLTKQWLINFRTIGPTIPSFYLDKQIPDDKDYDISIFNPQNQTCMNWLQSKPDGSVVYVSFGSLARLSPQQTEELYFGLKNSNHYFLWVVRESEVAKLPKEEYLSGEKGLVVSWCSQLQVLASGKVGCFVTHCGWNSTLEALSLGVPMVAMPECGDQLTNAKFIKDVWKTGVRAEADDGKGIMWGMIKREVIERCIREVMEGEETRRNADKWGKIIKEAVVEGGSSDKNTEDFATSLINFAETFQFSC	75 ± 1 µM	1.02 µmol/min/mg	0.92 ± 0.71 s⁻¹	12000 M⁻¹ s⁻¹
LuUGT74S1 (Linum usitatissimum; Q136E) (protein, N-terminal GST fusion (pGEX-4T-1, EcoRI/NotI), tag kept (eluted with glutathione); codon-optimised synthetic gene; E. coli BL21(DE3) pLysS) MAGDEREKAHCLVVPAAAQGHFTPLLQFSKRLIPKRIRVTLALTRFIHSTMTVTAQSGIHIDTISDGFDHSGLILQDPEHYSQTFRRVGSETLTDLIRKQSESRHPVHCIIYDASMPWFLDVAKRFGIVGAAFLTESCAVNAIYYHLREGTIKRPVVSDPAAGTLVIDGLPPLEVSDLPSFIWDDLHTEFLAAHLRQFSNDGADWVFCNTVYQLELEAVDWLTKQWLINFRTIGPTIPSFYLDKQIPDDKDYDISIFNPQNQTCMNWLQSKPDGSVVYVSFGSLARLSPQQTEELYFGLKNSNHYFLWVVRESEVAKLPKEEYLSGEKGLVVSWCSQLQVLASGKVGCFVTHCGWNSTLEALSLGVPMVAMPECGDQLTNAKFIKDVWKTGVRAEADDGKGIMWGMIKREVIERCIREVMEGEETRRNADKWGKIIKEAVVEGGSSDKNTEDFATSLINFAETFQFSC	69 ± 2 µM	0.858 µmol/min/mg	0.75 ± 0.02 s⁻¹	11000 M⁻¹ s⁻¹
LuUGT74S1 (Linum usitatissimum; A17S) (protein, N-terminal GST fusion (pGEX-4T-1, EcoRI/NotI), tag kept (eluted with glutathione); codon-optimised synthetic gene; E. coli BL21(DE3) pLysS) MAGDEREKAHCLVVPASAQGHFTPLLQFSKRLIPKRIRVTLALTRFIHSTMTVTAQSGIHIDTISDGFDHSGLILQDPEHYSQTFRRVGSETLTDLIRKQSESRHPVHCIIYDASMPWFLDVAKRFGIVGAAFLTQSCAVNAIYYHLREGTIKRPVVSDPAAGTLVIDGLPPLEVSDLPSFIWDDLHTEFLAAHLRQFSNDGADWVFCNTVYQLELEAVDWLTKQWLINFRTIGPTIPSFYLDKQIPDDKDYDISIFNPQNQTCMNWLQSKPDGSVVYVSFGSLARLSPQQTEELYFGLKNSNHYFLWVVRESEVAKLPKEEYLSGEKGLVVSWCSQLQVLASGKVGCFVTHCGWNSTLEALSLGVPMVAMPECGDQLTNAKFIKDVWKTGVRAEADDGKGIMWGMIKREVIERCIREVMEGEETRRNADKWGKIIKEAVVEGGSSDKNTEDFATSLINFAETFQFSC	68 ± 1 µM	0.75 µmol/min/mg	0.56 ± 0.45 s⁻¹	8000 M⁻¹ s⁻¹
